Assay results from patent US20090178146.

What was measured:
[1] = biological target: T1, GST-NFAT1(1-415) fusion protein (entire NFAT1 regulatory domain) expressed in bacterial cells
T1 sequence (Q13469 whole entry, species assumed, looked up): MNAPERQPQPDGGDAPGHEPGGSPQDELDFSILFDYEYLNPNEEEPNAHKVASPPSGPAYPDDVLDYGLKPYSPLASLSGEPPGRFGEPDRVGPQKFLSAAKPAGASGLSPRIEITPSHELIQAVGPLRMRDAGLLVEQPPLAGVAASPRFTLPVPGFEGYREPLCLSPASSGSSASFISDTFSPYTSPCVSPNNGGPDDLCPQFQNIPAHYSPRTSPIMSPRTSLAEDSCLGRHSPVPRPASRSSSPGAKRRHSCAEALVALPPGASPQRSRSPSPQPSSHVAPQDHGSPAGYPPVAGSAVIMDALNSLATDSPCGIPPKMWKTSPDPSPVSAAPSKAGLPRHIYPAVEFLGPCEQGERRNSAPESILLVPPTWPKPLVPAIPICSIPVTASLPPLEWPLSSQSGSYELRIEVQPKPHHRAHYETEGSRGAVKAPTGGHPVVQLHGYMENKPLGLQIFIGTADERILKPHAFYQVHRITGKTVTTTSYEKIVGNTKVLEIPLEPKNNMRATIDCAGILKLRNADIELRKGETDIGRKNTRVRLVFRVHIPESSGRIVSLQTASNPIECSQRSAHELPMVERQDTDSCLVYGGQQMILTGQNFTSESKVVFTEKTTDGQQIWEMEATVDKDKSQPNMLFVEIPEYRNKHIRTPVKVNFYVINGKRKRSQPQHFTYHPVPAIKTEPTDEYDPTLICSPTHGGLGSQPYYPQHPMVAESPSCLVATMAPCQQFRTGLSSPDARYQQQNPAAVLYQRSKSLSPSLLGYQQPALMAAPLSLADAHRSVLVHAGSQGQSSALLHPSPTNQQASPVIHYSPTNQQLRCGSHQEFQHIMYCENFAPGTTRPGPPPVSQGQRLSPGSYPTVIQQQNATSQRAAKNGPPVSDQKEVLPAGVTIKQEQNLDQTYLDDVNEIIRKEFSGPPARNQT

[2] = biological target: GST-fused peptide corresponding to the SP-3 motif (amino acids 264-295) of NFAT1, wild type
[3] = biological target: T2, GST-fused peptide corresponding to the SP-2 motif (amino acids 206-237) of NFAT1, wild type
T2 sequence (Q13469 whole entry, species assumed, looked up): T1 sequence (Q13469 whole entry, species assumed, looked up)

[4] = biological target: GST-fused SP-3 peptide of NFAT1 (amino acids 264-295) with Ser>Ala substitutions in the serines phosphorylated in cells

B1: FLAG-tagged IRAK4 expressed in HEK293 cells and immunoprecipitated with anti-FLAG antibody (protein)
chain: MNKPITPSTYVRCLNVGLIRKLSDFIDPQEGWKKLAVAIKKPSGDDRYNQFHIRRFEALLQTGKSPTSELLFDWGTTNCTVGDLVDLLIQNEFFAPASLLLPDAVPKTANTLPSKEAITVQQKQMPFCDKDRTLMTPVQNLEQSYMPPDSSSPENKSLEVSDTRFHSFSFYELKNVTNNFDERPISVGGNKMGEGGFGVVYKGYVNNTTVAVKKLAAMVDITTEELKQQFDQEIKVMAKCQHENLVELLGFSSDGDDLCLVYVYMPNGSLLDRLSCLDGTPPLSWHMRCKIAQGAANGINFLHENHHIHRDIKSANILLDEAFTAKISDFGLARASEKFAQTVMTSRIVGTTAYMAPEALRGEITPKSDIYSFGVVLLEIITGLPAVDEHREPQLLLDIKEEIEDEEKTIEDYIDKKMNDADSTSVEAMYSVASQCLHEKKNKRPDIKKVQQLLQEMTAS
in vitro kinase assay, phosphorylation of GST-NFAT1 (1-415) (autoradiography) [1]: Three novel candidates-PRKG1, DYRK2 and IRAK4-showed strong activity in this assay

B2: FLAG-tagged DYRK2 expressed in HEK293 cells and immunoprecipitated with anti-FLAG antibody (protein)
chain: MNDHLHVGSHAHGQIQVQQLFEDNSNKRTVLTTQPNGLTTVGKTGLPVVPERQLDSIHRRQGSSTSLKSMEGMGKVKATPMTPEQAMKQYMQKLTAFEHHEIFSYPEIYFLGLNAKKRQGMTGGPNNGGYDDDQGSYVQVPHDHVAYRYEVLKVIGKGSFGQVVKAYDHKVHQHVALKMVRNEKRFHRQAAEEIRILEHLRKQDKDNTMNVIHMLENFTFRNHICMTFELLSMNLYELIKKNKFQGFSLPLVRKFAHSILQCLDALHKNRIIHCDLKPENILLKQQGRSGIKVIDFGSSCYEHQRVYTYIQSRFYRAPEVILGARYGMPIDMWSLGCILAELLTGYPLLPGEDEGDQLACMIELLGMPSQKLLDASKRAKNFVSSKGYPRYCTVTTLSDGSVVLNGGRSRRGKLRGPPESREWGNALKGCDDPLFLDFLKQCLEWDPAVRMTPGQALRHPWLRRRLPKPPTGEKTSVKRITESTGAITSISKLPPPSSSASKLRTNLAQMTDANGNIQQRTVLPKLVS
in vitro kinase assay, phosphorylation of GST-peptide [2]: phosphorylated peptides corresponding to the conserved SP-3 but not the SP-2 motif of the NFAT regulatory domain in vitro
in vitro kinase assay, phosphorylation of GST-peptide [3]: phosphorylated peptides corresponding to the conserved SP-3 but not the SP-2 motif of the NFAT regulatory domain in vitro
in vitro kinase assay, phosphorylation of GST-NFAT1 (1-415) (autoradiography) [1]: Three novel candidates-PRKG1, DYRK2 and IRAK4-showed strong activity in this assay

B3: recombinant DYRK2 protein kinase (Upstate Biotechnology), bacterially expressed (protein)
chain: B2 chain
in vitro kinase assay with recombinant kinase, phosphorylation of GST-peptide [2]: DYRK2 and DYRK1A both displayed strong and selective kinase activity towards the SP-3 motif of NFAT1
in vitro kinase assay with recombinant kinase, phosphorylation of GST-peptide [4]: neither kinase phosphorylated an SP-3 peptide with Ser>Ala substitutions in the specific serine residues known to be phosphorylated in cells

B4: FLAG-tagged PRKG1 expressed in HEK293 cells and immunoprecipitated with anti-FLAG antibody (protein)
chain: MSELEEDFAKILMLKEERIKELEKRLSEKEEEIQELKRKLHKCQSVLPVPSTHIGPRTTRAQGISAEPQTYRSFHDLRQAFRKFTKSERSKDLIKEAILDNDFMKNLELSQIQEIVDCMYPVEYGKDSCIIKEGDVGSLVYVMEDGKVEVTKEGVKLCTMGPGKVFGELAILYNCTRTATVKTLVNVKLWAIDRQCFQTIMMRTGLIKHTEYMEFLKSVPTFQSLPEEILSKLADVLEETHYENGEYIIRQGARGDTFFIISKGTVNVTREDSPSEDPVFLRTLGKGDWFGEKALQGEDVRTANVIAAEAVTCLVIDRDSFKHLIGGLDDVSNKAYEDAEAKAKYEAEAAFFANLKLSDFNIIDTLGVGGFGRVELVQLKSEESKTFAMKILKKRHIVDTRQQEHIRSEKQIMQGAHSDFIVRLYRTFKDSKYLYMLMEACLGGELWTILRDRGSFEDSTTRFYTACVVEAFAYLHSKGIIYRDLKPENLILDHRGYAKLVDFGFAKKIGFGKKTWTFCGTPEYVAPEIILNKGHDISADYWSLGILMYELLTGSPPFSGPDPMKTYNIILRGIDMIEFPKKIAKNAANLIKKLCRDNPSERLGNLKNGVKDIQKHKWFEGFNWEGLRKGTLTPPIIPSVASPTDTSNFDSFPEDNDEPPPDDNSGWDIDF
in vitro kinase assay, phosphorylation of GST-NFAT1 (1-415) (autoradiography) [1]: Three novel candidates-PRKG1, DYRK2 and IRAK4-showed strong activity in this assay
